Measurements reported in patent publication US20250327097A1, “ORGANISMS PRODUCING LESS CROTONIC ACID” (Global Bioenergies, priority 2021, published 2025).
Substitutions are numbered along the chain they refer to. Names and notes keep the numbering of the source.

Test system: 3-methylcrotonic acid
Type: biochemical, Yersinia frederiksenii
Parameters: key: “+” representing a low increase in activity; “++++” representing a high increase in activity

B1: I283S-P284D-N287P-S322T-N388M-C430N-L432F-L434W-S436N-A463G-Y469D (protein)
chain: MFLKSLREQINLLKRQGDLRIINRPVDSYLEAAAIIRRSTETKAPVPLMTNIKGYPGCSIVGGLAALSSNPEYPLSRVAMSLGLSTTASAQSIVQYLIDGLKKTPYLPVEIDSNSAPCKQNILRGEDASLAHFPIPQVHQHDGNRYVNTWGVFIVESPDGQWCNWSIQRVQYLNDRQMIALVFPSQHISDIWEEWVKIGKPMPYALVQGCEPIVPYIAGLPLLERNVNEAEYIGALYGKGIEVVKCETHDLRVPASSEVVIEGYFAITREGVEGPFGEFAGYSDNEPSLQPILSITAISWQDDPIWPVVAEGKPVDEYHTCTGIGDAAAIQNVLLTANLPVSFVWVPLYSACHLMIVSINRHWRQTHPDLTSEQLTKKVGDVIHQTRMSIKLPKIVVLDDDVDPADTESLLWALATRIHPERKRYFYESNIFPWLNCYSEEERHNRKGKRVIIDALLPENHGGISSFDDAYPDDIKQRVLMHWETDFSHD
  Activity relative to WT: ++++

B2: I283T-P284D-E286C-N287P-S322T-N388M-C430N-L432F-L434W-S436N-A463G-Y469D (protein)
chain: B1 chain with S283T, E286C
  Activity relative to WT: ++++

B3: N388Q-C430P-L432F-L434W-S436N (protein)
chain: B1 chain with S283I, D284P, P287N, T322S, M388Q, N430P, G463A, D469Y
  Activity relative to WT: +

B4: I283T-P284D-N287P-S322T-N388M-C430N-L432F-L434W-S436N-H444R-A463G-Y469D (protein)
chain: B1 chain with S283T, H444R
  Activity relative to WT: ++++

B5: I283T-P284D-N287P-S322T-N388M-C430N-L432F-L434W-S436N-G462P-A463G-Y469D (protein)
chain: B1 chain with S283T, G462P
  Activity relative to WT: ++++

B6: I283T-P284D-N287P-S322T-N388M-C430N-L432F-L434W-S436N-E459P-A463G-Y469D (protein)
chain: B1 chain with S283T, E459P
  Activity relative to WT: ++++

B7: I283T-P284D-N287P-S322T-N388M-E421T-C430N-L432F-L434W-S436N-A463G-Y469D (protein)
chain: B1 chain with S283T, E421T
  Activity relative to WT: ++++

B8: I283T-P284D-N287P-S322T-N388M-i421aG-C430N-L432F-L434W-S436N-A463G-Y469D (protein)
chain: B1 chain with S283T
  Activity relative to WT: ++++

B9: I283T-P284D-N287P-S322T-N388M-R422Q-C430N-L432F-L434W-S436N-A463G-Y469D (protein)
chain: B1 chain with S283T, R422Q
  Activity relative to WT: ++++

B10: I283L-N285M-N287T-S322T-A337T-N388M-K394R-C430N-L432F-L434W-S436N-dG462 (protein)
chain: B1 chain with S283L, D284P, N285M, P287T, A337T, K394R, G463A, D469Y
  Activity relative to WT: ++++

B11: I283T-P284D-N287P-S288T-S322T-N388M-C430N-L432F-L434W-S436N-A463G-Y469D (protein)
chain: B1 chain with S283T, S288T
  Activity relative to WT: ++++

B12: I283T-P284D-N287P-S322T-N388M-C430N-L432F-L434W-S436N-A463G-Y469T (protein)
chain: B1 chain with S283T, D469T
  Activity relative to WT: ++++

B13: S185T-N388M-C430P-L432F-L434W-S436N (protein)
chain: B1 chain with S185T, S283I, D284P, P287N, T322S, N430P, G463A, D469Y
  Activity relative to WT: +

B14: I283T-P284D-N287P-S322T-H384T-N388M-C430N-L432F-L434W-S436N-A463G-Y469D (protein)
chain: B1 chain with S283T, H384T
  Activity relative to WT: ++++

B15: I283F-P284E-N287Q-S322T-N388M-K394R-C430N-L432F-L434W-S436N-dG462 (protein)
chain: B1 chain with S283F, D284E, P287Q, K394R, G463A, D469Y
  Activity relative to WT: ++++

B16: I283T-P284D-N287P-S322T-N388M-S429A-C430N-L432F-L434W-S436N-A463G-Y469D (protein)
chain: B1 chain with S283T, S429A
  Activity relative to WT: ++++

B17: I283T-P284D-N287P-S322T-N388M-E421V-C430N-L432F-L434W-S436N-A463G-Y469D (protein)
chain: B1 chain with S283T, E421V
  Activity relative to WT: ++++

B18: I283T-P284D-N287P-S322T-N388M-C430N-L432F-L434W-S436N-A463F-Y469D (protein)
chain: B1 chain with S283T, G463F
  Activity relative to WT: ++++

B19: I283T-P284D-N287P-S322T-N388M-R422V-C430N-L432F-L434W-S436N-A463G-Y469D (protein)
chain: B1 chain with S283T, R422V
  Activity relative to WT: ++++

B20: I283T-P284D-N287P-S322T-N388M-P393A-C430N-L432F-L434W-S436N-A463G-Y469D (protein)
chain: B1 chain with S283T, P393A
  Activity relative to WT: ++++

B21: I283T-P284D-N287P-S322T-N388M-R422F-C430N-L432F-L434W-S436N-A463G-Y469D (protein)
chain: B1 chain with S283T, R422F
  Activity relative to WT: ++++

B22: I283T-P284D-N287P-S322T-H384A-N388M-C430N-L432F-L434W-S436N-A463G-Y469D (protein)
chain: B1 chain with S283T, H384A
  Activity relative to WT: ++++

B23: P284E-N287Q-S322T-N388M-K394R-C430N-L432F-L434W-S436N-dG462-Y469D (protein)
chain: B1 chain with S283I, D284E, P287Q, K394R, G463A
  Activity relative to WT: ++++

B24: P284E-N287Q-S322T-N388M-K394R-C430N-L432F-L434W-S436N-dG462-Y469S (protein)
chain: B1 chain with S283I, D284E, P287Q, K394R, G463A, D469S
  Activity relative to WT: ++++
